# From a protein production outcome set (Wang et al. 2014)
# Assay: label from the status in PepcDB records
# 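Note: failed if final PepcDB status was selected cloned or expressed and not failed if soluble or beyond.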
row,Sequence,protein production
1,MKKTVIKETERLLILLGATGLLSGIGIVMNGTPITAQATTTTTQTQGILHSGDFGTSHWYISDDLTLHIGAGTFANLSNSQSAPPWTAYGDQVAKIVIEGPVTLAPNSRELFGYLGATSIEGLDQIDASHVTNFEFAFFGIQVPNLDLTSWDVHNVTDAGFMFMRAQSDVINLSGWQMPKLKLAQWMFMLAPRVHELDLAGINFRNADATRALMNMNLTVIHLGPDSLLTGTNLQPFHNDAYQDMWQDIGDGTTEAPTGKNRYTYSQLMAEFKGAAPYTYVRAKNPGQPVTVQYLDQLNQALVKADTLTGYYGDTFTAQAKTFAGYHVTSVDGEPTGTFGSRPYTVTYHYAVDEKNQQSLLGEDATITVGDPAPTSETFKAKATDKDGQALPVVVDLSQATLNQPGRYPVTLTTRDGQSKAVTLTVKAADESSSSSSSSSIDRSHSSSTPTSSSNSDDSLSSGDLISGGDTDLAVFKGQAVYATKTVRLYQRPTFKASQVRARYAKQSRTKRPMFVVIGSAHSKHHALRFKVRDVNHHSKTAGKVGYITAKKAYVTNVYYQRTYTRVTVINPQGVNGYRTRKLTGKTRHYRRGQTLRVKRLVRYHLTTRYVLTNGRYVTTNKKLVKVQQNSVQQSTQHSAAVTTRTIK,failed
2,MKKVLALVAFVVLFSFSFLSAGVTAQAALKDGTYSVDYTVLQGDSDSVSMANDYFDKPATVTVNGGKSTVSLQVNHSKWITGLWVEGNAVSVTSKNTASDTRKVSFPVSTLSSPVNAKIKVDIDDDGLNYHHEYQIQLRFDEGAVKSSGAAV,failed
3,MKKVLPALLMGFVGLNASDRLLEIMRLYQKQGLEMVGQKLDSYLADKSFWAEELQNKDTDFGYYQNKQFLFVANKSKPSLEFYEIENNMLKKINSSKALVGSKKGDKTLEGDLATPIGVYRITQKLERLDQYYGVLAFVTNYPNLYDTLKKRTGHGIWVHGMPLNGDRNELNTKGCIAIENPLLSSYDKVLKGEKAFLITYEDKFFPSTKEELSMILSSLFQWKEAWARGDFERYMRFYNPNFTRYDGMKFNAFKEYKKRVFAKNEKKNIAFSSINVIPYPNSQNKRLFYVVFDQDYKAYQHNKLSYSSNSQKELYIEIENNQVSIIMEK,failed
4,MKKYNVDWNYWVVRFLFVMALIVGYLLITNYQHFVHSVSGLLGILSPFITGFVIAYLLSGSQKKIEGLLERVPLPVVKKAKHGLSVLLLYLIILFIFVLTLNYIVPLLISNLVDLANSLPTFYDHMVQFVMSLEDKGILKTAAIEKYLNSVLKDLSPERFLNQWTQALFSLGTLTKNVSSFFLNAFLTLIISIYALVFKQSILTFVEKAAHKLLSEKVYKQTQTWLNTTNKIFYKFISCQFLDACIIGVSSTILLSILNVKFAVTLGILLGICNMIPYFGSIFASIVAGVITLFTGGVTQAITVLLVLLILQQIDGNIIGPRIMGDALNVNPILIIVSITIGGAYFGVLGMFLAVPVAAIIKIIVSEWLNESKENDKIVDSIES,failed
5,MKLALVNRQVILPESGTESFQCHASTLVRLPCGTLVAAWFAGLREGSEDTAIWLSRYEHNIWTTPQRVAAREGEAHWNPVLFYPSDKLWLFYKVGSDVHVWKTWFITSSDRGFTWSTPAPLVNDDILPRGPVKNKLLLASNGAWIAPGSIESPERWRAFVDRSSDEGKHWSISFVPLEPDNAISGTNVALWDGIKKGRLWECCLENLLRWDGVIQPTLWESSPGHIHMLLRSTRGAIFRSDSIDYGATWSVARATSLPNNNSGIDLVSMQDGTLILALNPVNGNWGKRYPLSLIASQDNGESWLPLLDLESDHGEYSYPAIISEGGIVHITYTWNRKNIVYCRLQTVLEHHHHHH,failed
6,MKLATFDDGSRDGRLLVVARDLGHAVDASDIATSLQVALENWPQVEARLQALYQQLNDDAVAGAFALDLARLAAPLPRASQWLDGSCFLSHGALMQKAFNLDPIEGVEHTPLIYQGASDDFLGPLADIPLPSEAHGIDFEGEFAVLLDDVPMGCPAEQALQHVRLILQLNDVSLRALAPREMKTGFGFLQAKPASSFAPVAVTPDELGEAWRDGRVHLPLHVHWNGEWFGHPHGGAMHFGFHQLIAHAALTRRLSAGTLLGSGTVSNAERSVGSACIAERRAIETIACGAPRTAFMRFGDRVRMEARGPEGEVLFGAIDQRVVRGGWPCE,failed
7,MKLEKLIPWLAGGLAVVGAAIAVIPPSPVRGFDTDAFGRLPVLEGGRVKPVDSVSRNALLMIRGQQSFRYDPDGDGPQKGRTISSDEWILDVLFRPELADQYPVFVINDPEVLGLMGMRQSSNRYFAFSALVPHLEEIQKQAMAAHQVDAKQRTRFQSAIANLFERVYLYYRLKNTVQLAGSPGLAAEVASAGTPGAQQRHQAIEELAYFRPIPPAAGTTGDDWLNMGQALRGAASGQVGDALSGWARLSVAYMAQDPSSFGRAVADVTAADAAARPDSIDLAGHEIVFNRAQPFYAGMVVYVLAMLALFASWLWKPKILQPAAYGLLVAGALIHTLGLVSRVLLQGRPPVTNLYSSAVFVGWGAVVLGVILERIYRKGFATAVAAASGFASLIVAHHLSGDGDTMEMMRAVLDSNFWLATHVVTITIGYSGTFLAGAMAIGYTLRKHLVRKPDPGTTKALMGMTYGVICFALFFSFLGTVLGGIWADQSWGRFWGWDPKENGALLIVLWNAIILHARWGGFVRERGIMAMAIFGNVITSLSWFGVNMLGVGLHSYGFMDSAFWALTGFIASQLAIMAFTLLPAQFWRTAHAAGKQQEPSPEPGH,failed
8,MKLGVNLCFAVKRWLEPDRLAGLVRDDLGLEYVQYTYDLTDPWWPDIERDRRAIAYAKAFRKAGLTIESTFGGLASYTYNHFLAPTLELQSLGYQHLKRAIDMTAAMEVPATGMPFGSYSAADALNPARREEIYAIARDMWIELAAYAKRQGLSMLYVEPVPLATEFPSSAADAARLMADLDGRTEIPVRLLVDWGHALFEPLFGPEADMDHWMDLCQPWIAAYHIQQTDGQLDRHWSFTQPGVVTPQRLQDFWDKYALTDQTFFAEILYPFEARDEDVLADMIASVKALKAASPAA,not failed
9,MKLICSKANLLKGVNIVSKAVPTRTTMAILECILIDASANEIKLMANDMELGIETIIDGTIEERGIIALDAKIFSEIVRKLPDNDVTIETDASFKTVISCEKAKFNIIGKSGDDFSYIPYVERNESIVLSQFTLKEVIRQTIFSIADNDNNKLMTGELFEIEENKLRVVSLDGHRISIRYIEMKNHYDSKKVVVPGKTLQEISKIIPGSADEDVVIYITNNHIVFEFENTTVVSRLIEGEYFKIDQMLSSDYDTKVRINKRELLDCIDRATLLVKEGDKKPIIMNITDGNMELRINSFIGSMNEDIDIDKDGKDIMIGFNPKFFIDALRVIDEEEVNLYMVNPKAPCFIKDDEGKFIYLILPVNFNTAAN,not failed
10,MKLILAPMEGLTDPIMRDVLTHVGSFDWCVTEFIRVTDSVLPDHVYYTYCPELKNNGKTAAGTPVHVQFLGNNPDMLAANAEKVVALGAPAIDLNFGCPAKTVNRHRGGSILLDEPDVVHLLVKAVRDAVPAHIPVSAKMRLGYLDENHTMDNAYAIQEAGANWLTVHARTKADGYTPPAYWEKIQPIKDALSINVIANGEIWTNQDAKACQQQSGCEDLMIGRGAVTTPDLTLCIRQNVDEALMNWAALIELQQRFLNGEYKTEIGMIGRYKQWLGMMTKAYPEAKQLWDEIKRIKNLDEILLKLGRSS,failed
11,MKLKSLLLRYYPPGIMLEYEKHGELKTKSIDLLDLGPSTDVSALVEEIQKAEPLLTASRTEQVKLLIQRLQEKLGQNSNHTFYLFKVLKAHILPLTNVALNKSGSCFITGSYDRTCKLWDSASGEELNTLEGHRNVVYAIAFNNPYGDKIATGSFDKTCKLWSVETGKCYHTFRGHTAEIVCLSFNPQSTLVATGSMDTTAKLWDIQNGEEVYTLRGHSAEIISLSFNTSGDRIITGSFDHTVVVWDADTGRKVNILIGHCAEISSASFNWDCSLILTGSMDKTCKLWDATNGKCVATLTGHDDEILDSCFDYTGKLIATASADDGVSLCRPGRSAVARSWLTATCASQVQAILLPQPPELCHVLGNHV,failed
12,MKLKTFLIVGCLGGLFTLSSCTAPTNVKDYSAYVNPFIGTGGHGHTFPGAVVPHGMIQPSPDTRIDGWDACSGYYYADSTINGFSHTHVSGTGCCDYGDVLLMPTVGKQQYRTTDPQSQRLAYASSFSHKNEIAEPGYYSVFLDTYQVKAEISSTKRGAIHRYTFPENTESGFIIDLDYSLQRQTNSEMEIEVISDTEICGHKKTTYWAFDQYINFYAKFSKPFSYTLVTDSITMDNGKRLPVCKALLHFNTSKDEQVLVKVGVSAVDIAGARKNVESEIPGWDFEKVRKDARTAWNEYLSKIDITTSDKEDKAIFYTALYHTGISPNLFTDADGRYLGMDLEVHQGDTLNPIYTVFSLWDTFRALHPLMTIIDPDLNNHFINSLIKKHQEGGIYPMWDLASNYTGTMIGYHAVPVIVDAYMKGYRNFDTKEAYKACLRAAEYDTTGIKCPDLVLPHLMPKAKYYKNAIGYIPCDRENESVAKALEYAYDDWCISIFAEAMSDFESKAKYERFAKAYEFYFDKSIRFMRGLDSKGEWRTPFNPRASTHRSDDYCEGTAWQWTWFVPHDVEGLVNLMGGEDAFVQKLDSLFSADSSLEGETTSSDISGLIGQYAHGNEPSHHVIHLYNYVNHPWRTQELVDSVYRSQYANSIEGLSGNEDCGQMSAWYILNSMGFYQVCPGKPVYSIGRPAFDKAVINLPEGKTFSIVVKNNGKKNKYIESVLLNGKALNIPFFNHQDIANGGTMEIKMTDHPTKWGVLSPALSSKEEE,failed
13,MKLKYCHYAYDDEGYVIHMLTSNERTFFTNAYIIETKNSIVVVDTLMVNSDAILLRQYMDNINKPLIAVIITHGHPDHYNGTEIITGFKEVPIISTKGIRDCIQDTVDSKEVKWKPYFGQDWPEHKILPNQLVIDSEVVNLDGLDYSFRDLGAAESSSDLFFTLGEKRSVIFVGDVVFNNMHGFMNDGNSAQWLKVLQKLLTEIADVKLLFTGHGDPGDTHQLVQRQIDYISHYRSNLLAIIRGNQLEHHHHHH,failed
14,MKLLIKKITYIIFILCSYCSYGEAKIQLPSILGNGMVLQQKSEVRLWGKATPNKKVTIYTSWNAQQQEVNSNKKGDWIVTVTTPEAGGPYTIRISDGEELLLDDVLIGEVWLCSGQSNMEMPVKGFRGQPAAESQNTIVNVNPNRSLRLFTVQRAYSSILEEDVTGQWEKNTPKSVSTFSAVAYYYGDQLQKVLGIPVGLIHASWSGSSIEPWISKENLLQFPEVDLTPAENPQLKYANGTPTVLYNAMIKPLENYNIKGMIWYQGESNSARPEQYQRLFAVWAKQNRALFRSKDLPIYYTEIAPVASPVDRPFQRAIFREAQLESMHEVSNTGMAFTNDLGSEKFIHAPKKREIGQRLAYWALAKTYQLEGFEYSGPIHRSYMKNGKIIEILFDHADDGLNPENEPLVGFEIASEDSIFYPANAEIINGTSRVKVWSDKVAQPVYVRYAFRNFLRGNLVNNAGLPAAPFRMDLRKMDFQNPEKLGWARVTTFGKLPEYISVYHSPEWIESTRTNAYIAVVDTKKGGSLDVGGADSGVKTPIEFYQSEKRKPSIVLNGGYFANGRTVSLICKNGKILSDNISVVNRLLEGKKTAYYPTRSVFSLYTDGTYHVDWIYKSAQQTYAYDMPALNSSTRPPLSVPSKGFPKGAKVWTAEMGIGAGPILIKDGTIRNSWVEELLDVASGINPQTCQPRSAVGVTQDGKLILFVCEGREQTPDIPGMTLAQLARLMRSFGCVDALNLDGGGSSCMLINGKETIKPCNKYHHQRPVATVLFAR,failed
15,MKLLLTRPEGKNAAMASALDALAIPYLVEPLLSVEAAAVTQAQLDELSRADILIFISTSAVSFATPWLKDQWPKATYYAVGDATADALALQGITAERSPADSQATEGLLTLPSLEQVSGKQIVIVRGKGGREAMADGLRLRGANVSYLEVYQRACPPLDAPASVSRWQSFGIDTIVVTSGEVLENLINLVPKDSFAWLRDCHIIVPSARVETQARKKGLRRVTNAGAANQAAVLDALGM,not failed
